# Test results as given in patent US11857601 (dated 2024).
# B1: GI101C1 (hCD80-Fc) (Fc fusion)
# chain: VIHVTKEVKEVATLSCGHNVSVEELAQTRIYWQKEKKMVLTMMSGDMNIWPEYKNRTIFDITNNLSIVILALRPSDEGTYECVVLKYEKDAFKREHLAEVTLSVKADFPTPSISDFEIPTSNIRRIICSTSGGFPEPHLSWLENGEELNAINTTVSQDPETELYAVSSKLDFNMTTNHSFMCLIKYGHLRVNQTFNWNTTKQEHFPDNGSGGGGSGGGGSGGGGSAESKYGPPCPPCPAPEAAGGPSVFLFPPKPKDQLMISRTPEVTCVVVDVSQEDPEVQFNWYVDGVEVHNAKTKPREEQFNSTYRVVSVLTVLHQDWLNGKEYKCKVSNKGLPSSIEKTISKAKGQPREPQVYTLPPSQEEMTKNQVSLTCLVKGFYPSDIAVEWESNGQPENNYKTTPPVLDSDGSFFLYSRLTVDKSRWQEGNVFSCSVLHEALHNHYTQKSLSLSLG
# Target: Human CTLA-4/CD152, His tag (Sino Biological, Cat: 11159-H08H) (human, UniProt P16410 36-162)
# Test: BLI
# Chain of Human CTLA-4/CD152, His tag (Sino Biological, Cat: 11159-H08H) (P16410 36-162): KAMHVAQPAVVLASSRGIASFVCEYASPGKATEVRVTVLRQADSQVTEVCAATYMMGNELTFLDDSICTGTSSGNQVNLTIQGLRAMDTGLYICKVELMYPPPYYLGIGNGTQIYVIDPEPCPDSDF
binder,measurement,value
B1,Kd,3.2 nM
